Experiment [1] deals with T1, peptide … (SEQ ID NO:51), N-terminally biotinylated (human).
T1 sequence (peptide, N-terminally biotinylated): EISQEVRGDVFPSY
The experiment in a line: ELISA, biotin-peptide on neutravidin plate, antibody 1 ug/ml. On the technique in general: In an ELISA, binding on a coated surface is turned into a signal by an enzyme label.

For experiment [2], the target named is T2, peptide … (SEQ ID NO:74), N-terminally biotinylated (human).
T2 sequence (peptide, N-terminally biotinylated): EISQEVAGDVFPSY
The description is as above.

In experiment [3] the target is T3, peptide … (SEQ ID NO:75), N-terminally biotinylated (human).
T3 sequence (peptide, N-terminally biotinylated): EISQEVRADVFPSY
The experiment is described as above.

Experiment [4] has as its target peptide … (SEQ ID NO:76), N-terminally biotinylated (human). The experiment is described as above.
The target of experiment [5] is T4, peptide … (SEQ ID NO:77), N-terminally biotinylated (human).
T4 sequence (peptide, N-terminally biotinylated): EISQEVAADVFPSY
The experiment is described as above.

Experiment [6] has as its target peptide … (SEQ ID NO:78), N-terminally biotinylated (human). Described as above.
Experiment [7] concerns the target peptide … (SEQ ID NO:79), N-terminally biotinylated (human). The description is as above.
The target of experiment [8] is peptide … (SEQ ID NO:80), N-terminally biotinylated (human). The experiment is described as above.
The target of experiment [9] is peptide … (SEQ ID NO:81), N-terminally biotinylated (human). Described as above.
Experiment [10] concerns the target peptide … (SEQ ID NO:82), N-terminally biotinylated (human). The experiment is described as above.
Experiment [11] has as its target peptide … (SEQ ID NO:83), N-terminally biotinylated (human). The description is as above.
The target of experiment [12] is peptide … (SEQ ID NO:84), N-terminally biotinylated (human). The experiment is described as above.
For experiment [13], the target named is peptide … (SEQ ID NO:85), N-terminally biotinylated (human). The description is as above.
Experiment [14] concerns the target peptide … (SEQ ID NO:86), N-terminally biotinylated (human). The description is as above.
In a further experiment the target is T5, human lactadherin (human, UniProt Q08431 24-387).
T5 sequence (looked up): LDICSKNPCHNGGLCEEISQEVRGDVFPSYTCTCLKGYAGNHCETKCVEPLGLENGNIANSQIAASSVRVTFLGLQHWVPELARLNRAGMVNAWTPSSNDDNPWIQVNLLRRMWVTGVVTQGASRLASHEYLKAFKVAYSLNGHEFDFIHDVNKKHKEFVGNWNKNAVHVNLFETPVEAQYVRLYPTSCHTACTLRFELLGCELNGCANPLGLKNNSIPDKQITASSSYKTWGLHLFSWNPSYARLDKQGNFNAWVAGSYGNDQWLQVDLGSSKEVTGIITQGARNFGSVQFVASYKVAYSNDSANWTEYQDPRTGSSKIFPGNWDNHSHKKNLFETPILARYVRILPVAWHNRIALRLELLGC
The experiment is described as follows: cell-based or functional assay.

For experiment [15], the target named is T1, peptide … (SEQ ID NO:51), N-terminally biotinylated (human). The experiment in a line: ELISA, biotin-peptide on neutravidin plate, antibody 1 ug/ml. This is another data set of the same source.
The target in experiment [16] is T6, peptide EISQEVAGDVFPSY (SEQ ID NO:74), N-terminally biotinylated (human).
T6 peptide: Biotin-EISQEVAGDVFPSY
Described as above.

Experiment [17] concerns the target T7, peptide EISQEVRADVFPSY (SEQ ID NO:75), N-terminally biotinylated (human).
T7 peptide: Biotin-EISQEVRADVFPSY
The description is as above.

The target of experiment [18] is T8, peptide EISQEVRGAVFPSY (SEQ ID NO:76), N-terminally biotinylated (human).
T8 peptide: Biotin-EISQEVRGAVFPSY
The description is as above.

The target in experiment [19] is T9, peptide EISQEVAADVFPSY (SEQ ID NO:77), N-terminally biotinylated (human).
T9 peptide: Biotin-EISQEVAADVFPSY
Described as above.

Experiment [20] deals with T10, peptide EISQEVRAAVFPSY (SEQ ID NO:78), N-terminally biotinylated (human).
T10 peptide: Biotin-EISQEVRAAVFPSY
The description is as above.

For experiment [21], the target named is T11, peptide EISQEVAGAVFPSY (SEQ ID NO:79), N-terminally biotinylated (human).
T11 peptide: Biotin-EISQEVAGAVFPSY
Described as above.

Experiment [22] has as its target T12, peptide EISQEVAAAVFPSY (SEQ ID NO:80), N-terminally biotinylated (human).
T12 peptide: Biotin-EISQEVAAAVFPSY
Described as above.

Experiment [23] deals with T13, peptide NGGLCEEISQEVRG (SEQ ID NO:81), N-terminally biotinylated (human).
T13 construct: Human lactadherin 14-mer with part of the RGD domain at the C-terminus
T13 peptide: Biotin-NGGLCEEISQEVRG
The description is as above.

In experiment [24] the target is T14, peptide HNGGLCEEISQEVR (SEQ ID NO:82), N-terminally biotinylated (human).
T14 construct: Human lactadherin 14-mer with part of the RGD domain at the C-terminus
T14 peptide: Biotin-HNGGLCEEISQEVR
The experiment is described as above.

Experiment [25] addresses T15, peptide CHNGGLCEEISQEV (SEQ ID NO:83), N-terminally biotinylated (human, cysteine pairing not given here).
T15 peptide: Biotin-CHNGGLCEEISQEV
The experiment is described as above.

Experiment [26] addresses T16, peptide GDVFPSYTCTCLKG (SEQ ID NO:84), N-terminally biotinylated (human, cysteine pairing not given here).
T16 construct: Human lactadherin 14-mer with part of the RGD domain at the N-terminus
T16 peptide: Biotin-GDVFPSYTCTCLKG
The experiment is described as above.

The target of experiment [27] is T17, peptide DVFPSYTCTCLKGY (SEQ ID NO:85), N-terminally biotinylated (human, cysteine pairing not given here).
T17 construct: Human lactadherin 14-mer with part of the RGD domain at the N-terminus
T17 peptide: Biotin-DVFPSYTCTCLKGY
The description is as above.

Experiment [28] has as its target T18, peptide VFPSYTCTCLKGYA (SEQ ID NO:86), N-terminally biotinylated (human, cysteine pairing not given here).
T18 peptide: Biotin-VFPSYTCTCLKGYA
Described as above.

Read-outs that look alike come from different tables or passages of the source. Ends that are not written are not given here. * marks the point of attachment. Biotin = O=C1N[C@H]2[C@H](CS[C@H]2CCCCC(=O)*)N1

The values below come from patent publication WO2013139956A1 (dated 2013).

Regarding “rabbit polyclonal antibody preparation raised against amino acids 56-190 of murine MFG-E8 (Santa Cruz sc-33546)”, the absorbance 450 nm minus 540 nm in experiment [1] worked out at 0.28 absorbance; in experiment [2], 0.24 absorbance; in [3], 0.22 absorbance; in experiment [4], 0.24 absorbance; in experiment [5], 0.24 absorbance; in experiment [6], 0.28 absorbance. Further, the absorbance 450 nm minus 540 nm in experiment [7] amounted to 0.28 absorbance; in [8] it was 0.31 absorbance; in experiment [9] it was 0.27 absorbance; in experiment [10] it was 0.24 absorbance; in experiment [11], 0.24 absorbance; in experiment [12], 0.29 absorbance. The absorbance 450 nm minus 540 nm in [13] came out at 0.41 absorbance; in experiment [14] it was 0.34 absorbance.

B1: anti-lactadherin antibody 311A7 (antibody, IgG1, V domains shown)
VH: EFQLQQSGPELVKPGASVRISCKASGYSFTDYNMNWVKQSDGKTLEWIGVINPDYGTTNNNQRFRGKATLTLDLSSSTAYMQLNSLTSEDSAVYYCARGGDYGAGYALDYWGQGTSVTVSS
VL: QIVLTQSPAIMSASPGEKVTITCSASSSVSYMYWFQQKPGTSPKLWIYSTSNLASGVPARFSGSGSGTSYSLTISRMEAEDAATYYCQQRSSYPRTFGGGTKLEIKR
notes: also called murine 311A7; hybridoma 311A7
In the case of B1, in the experiment with human lactadherin, the “IC50 (nM), inhibition of cell adhesion to human lactadherin” value was found to be 7.36 nM. In the experiment with human lactadherin, the “decrease of SKOV-3 cell migration towards lactadherin, antibody at 5 ug/mL” value is over 80%. In the experiment with human lactadherin, the “inhibition of SKOV-3 cell adhesion to coated human lactadherin, antibody at 5 ug/mL” value is over 70%. In addition, the absorbance 450 nm minus 540 nm is 1.47 absorbance in experiment [15]; 0.02 absorbance in [16]; 0.01 absorbance in [17]; 0.01 absorbance in experiment [18]; 0.01 absorbance in [19]; 0.02 absorbance in experiment [20]. Moreover, the “absorbance 450 nm minus 540 nm” value was determined as 0.05 absorbance in experiment [21]; 0.02 absorbance in experiment [22]; 0.01 absorbance in [23]; 0.02 absorbance in [24]; 0.02 absorbance in [25]; 0.02 absorbance in experiment [26]. For the same molecule, the “absorbance 450 nm minus 540 nm” value in experiment [27] and in experiment [28] was 0.02 absorbance in each case.
